Molecular target: HLA-A2 (Homo sapiens, UniProt P04439, D140Y/D185E/D98H/E176V/E277Q/G131W/G231S/I119V/I121R/I166T/I218V/L300P/L318F/N151K/N90K/P208A/P217A/Q86G/Q94H/R138H/R169H/T345S)
Experiment: HLA-A2 peptide binding assay on T2 cells (fluorescence index, flow cytometry)
Settings: summary of Tables 2 and 3

Sequence | upregulation of HLA-A2 expression (in words)
SLQESGLKV (Filamin-B peptides) [Filamin B peptide # 4, 9-mer peptide selected from the filamin-B polypeptide] | moderate upregulation
LILGLVWTL (Filamin-B peptides) [Filamin B peptide # 1, 9-mer peptide selected from the filamin-B polypeptide] | greatest upregulation
GLVEPVNMV (Filamin-B peptides) [Filamin B peptide # 2, 9-mer peptide selected from the filamin-B polypeptide] | moderate upregulation
RLIALLEVL (Filamin-B peptides) [Filamin B peptide # 5, 9-mer peptide selected from the filamin-B polypeptide] | greatest upregulation
KLILGLVWT (Filamin-B peptides) [Filamin B peptide # 7, 9-mer peptide selected from the filamin-B polypeptide] | upregulated HLA-A2 weakly
GLAPLEVRV (Filamin-B peptides) [Filamin B peptide # 3, 9-mer peptide selected from the filamin-B polypeptide] | greatest upregulation
GQGDVMVFV (Filamin-B peptides) [Filamin B peptide # 6, 9-mer peptide selected from the filamin-B polypeptide] | moderate upregulation

Reference: patent US7901902B2, “Methods and compositions for identifying a cellular immune response against prostate cancer” (BioSante Pharmaceuticals, Inc., priority 2006, dated 2011)
